The text below walks through data of patent publication US20210253724A1.

Assay [1] deals with human 4-1BB (CD137) on Jurkat-hu4-1BB-NFκB-luc2 reporter cells (human) (UniProt Q07011). In words: cell-based or functional assay. The arrangement: AUC of NFκB-luciferase activation curve, no CEA+ cells / AUC of NFκB-luciferase activation curve, with CHO-k1-cynoCEACAM5 clone 8: unit not given beside the values.
Assay [2] has as its target human CEACAM5 (CEA) on cells (human) (UniProt P06731). Nature of the assay: flow cytometry on CHO-k1-humanCEACAM5 clone 13. Background: Flow cytometry measures light scatter and fluorescence of single cells or particles in a stream.
For assay [3] the target is unchanged. In words: flow cytometry on MKN45 cells. The arrangement: unit not given beside the values.
Assay [4] deals with human FAP on NIH/3T3-huFAP clone 19 cells (human) (UniProt Q12884). Nature of the assay: flow cytometry on NIH/3T3-huFAP clone 19 cells.
Assay [5] concerns the target human CEACAM5 (CEA) on cells (human) (UniProt P06731). In words: flow cytometry on CHO-k1-humanCEACAM5 clone 12.
Assay [6] deals with cynomolgus monkey CEACAM5 on CHO-k1-cynoCEACAM5 clone 8 cells (cynomolgus monkey). Nature of the assay: flow cytometry on CHO-k1-cynoCEACAM5 clone 8. The arrangement: unit not given beside the values.
Assay [7] concerns the target human CEACAM5 (CEA) on cells (human) (UniProt P06731). In words: flow cytometry on CHO-k1-humanCEACAM5 clone 11.
For assay [8], the target named is human 4-1BB (CD137) on Jurkat-hu4-1BB-NFκB-luc2 reporter cells (human) (UniProt Q07011). Nature of the assay: cell-based or functional assay. The arrangement: AUC of NFκB-luciferase activation curve, no FAP+ cells / AUC of NFκB-luciferase activation curve, with WM-266-4 cells: unit not given beside the values.

human CEACAM5 (CEA) on cells (human), sequence (P06731 35-685 E398K limits assumed): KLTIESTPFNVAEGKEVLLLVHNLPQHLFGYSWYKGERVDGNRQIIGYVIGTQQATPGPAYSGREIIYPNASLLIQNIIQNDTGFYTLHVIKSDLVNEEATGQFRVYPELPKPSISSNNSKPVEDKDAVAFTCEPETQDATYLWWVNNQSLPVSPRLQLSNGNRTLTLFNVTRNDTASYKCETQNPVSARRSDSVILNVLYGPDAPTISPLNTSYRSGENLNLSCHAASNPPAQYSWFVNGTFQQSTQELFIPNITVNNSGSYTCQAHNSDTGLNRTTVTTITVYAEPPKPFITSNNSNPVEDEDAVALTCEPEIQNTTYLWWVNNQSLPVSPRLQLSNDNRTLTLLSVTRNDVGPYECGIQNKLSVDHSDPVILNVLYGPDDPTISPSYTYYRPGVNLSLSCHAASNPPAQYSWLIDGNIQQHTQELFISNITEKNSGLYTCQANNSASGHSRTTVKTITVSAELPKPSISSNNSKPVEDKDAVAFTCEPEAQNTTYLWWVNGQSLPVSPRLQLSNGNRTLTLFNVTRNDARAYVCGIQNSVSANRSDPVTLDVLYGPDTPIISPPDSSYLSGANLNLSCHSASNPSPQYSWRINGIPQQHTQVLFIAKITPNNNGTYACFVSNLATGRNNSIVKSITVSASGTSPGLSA

In assay [1], “Untargeted (DP47) huIgG1 P329GLALA (antibody)” came in with an AUC of NFκB-luciferase activation curve, no CEA+ cells of 47; an AUC of NFκB-luciferase activation curve, with CHO-k1-cynoCEACAM5 clone 8 of 77; an AUC of NFκB-luciferase activation curve, with CHO-k1-humanCEACAM5 clone 11 of 264; an AUC of NFκB-luciferase activation curve, with CHO-k1-humanCEACAM5 clone 12 of 313. For the same substance, in assay [2], the AUC is 1870. Besides, in assay [3], the AUC turned out to be 420. Besides, in assay [4], the AUC stood at 362 and the EC50 (commonly the midpoint of the concentration-response curve) was determined as 2.29 nM. Moreover, the AUC in assay [5] turned out to be 1190. The AUC in assay [6] turned out to be 219. In assay [7], this substance gave an AUC of 746. In assay [8], the AUC of NFκB-luciferase activation curve, no FAP+ cells came to 286; the AUC of NFκB-luciferase activation curve, with NIH/3T3-huFAP clone 19 cells came to 521; the AUC of NFκB-luciferase activation curve, with WM-266-4 cells was 384.
